experiment: yeast display, Sf9 membrane polyspecificity reagent, FACS + sequencing; frameworks hold sequencing errors
Outline: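 In a synthetic yeast display library (Saccharomyces cerevisiae BJ5465), nanobody expression was induced with galactose for 36–48 hours. FACS gates were set low and high (top ~1%) using anti-HA fluorescence for expression and streptavidin fluorescence for binding of the Sf9 membrane reagent. Each polyreactivity label is drawn from the gate of origin.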

Row | Sequence | polyreactivity (PSR sort gate)
1 | QVQLVESGGGLVQAGGSLRLSCAASGLTFQYYVMGSYRQAPGKERELVAAISSGGSTYYADSVKGRFTISRDNAKNTVYLQMNSLKPEDTAVYYCAAEAGYAYPLWPYTFPFEYWGQGTQVTVSS | low polyreactivity
2 | QVQLVESGGGLVQAGGSLRLSCAASGSTFVFYAMGWYRQAPGKERELVAAISRSGGSTYYADSVKGRFTISRDNAKNTVYLQMNSLKPEDTAVYYCNAVRFYRYGWGQGTQVTVSS | high polyreactivity
3 | QVQLVESGGGLVQAGGSLRLSCAASGSIFSTYAMGWYRQAPGKERELVAAISGSGGSTYYADSVKGRFTISRDNAKNTVYLQMNSLKPEDTAVYYCNRLPYVSSAYVGLGYWGQGTQVTVSS | high polyreactivity
4 | QVQLVESGGGLVQAGGSLRLSCAASGFIFVTYAMGWYRQAPGKERELVAAITNSGGTTYYADSVKGRFTISRDNAKNTVYLQMNSLKPEDTAVYYCNKPYGAETAHREFDYWGQGTHVTVSS | low polyreactivity
5 | QVQLVESGGGLVQAGGSLRLSCAASGSTFYYYAMGWYRQAPGKERELVAAINSGGRTNYADSVKGRFTISRDNAKNTVYLQMNSLKPEDTAVYYCAKRTYPYGTYRSVWGYDYWGQGTQVTVSS | low polyreactivity
6 | QVQLVESGGGLVQAGGSLRLSCAASGSIFIANAMGWYRQAPGKERELVAAITLNGGSTYYADSVKGRFTISRDNAKNTVYLQMNSLKPEDTAVYYCAADWVWVAPQYWIDEYDYWGQGTQVTVSS | low polyreactivity
7 | EEELVESGGGLVQAGGSLSLICAASGLTFYIYAMGWYRPAPGKERELVAAITTSGDSTYYADSVKGRFTISRDNAKNTVYLLLNSLKPEDTAVYYGAAAVWHYGRPGYLDSGYDYWGQGTQVSVSS | low polyreactivity
8 | QVQLVESGGGLVQGGGSLSLRCAASGSTFDYNAMGWYRQAPGKERDLVAVISGGSSTNYADSVKGRFTISRDNEKNTVYLQMNSLNPEDTAVYYCNARDYFVARAVSFVTYWLGVYWGQGTQVSVSS | low polyreactivity
9 | QVQLVESGGGLVQAGGSLRLSCAASGRIFPINVMGWYRQAPGKERELVAAISGRGGSTYYADSVKGRFTISRDNAKNTVYLQMNSLKPEDTAVYYCNAVRVSIPYIYTMDYWGQGTQVTVSS | high polyreactivity
10 | QVQLVESGGGLVQAGGSLRLSCAASGSIFDSNNMVWYRQAPGKERELVAGISTGGSTNYADSVKGRFTISRDNAKNTVYLQMNSLKPEDTAVYYCNADLGSSYDWGQGTQVTVSS | low polyreactivity
11 | QVQLVESGGGLVQAGGSLRLRCAASGSTFTYNTMGWYRQAPGKERELVAAINTTGNTYADSVKGRFTISRDNAKNTVYLQMNSLKPEDTAVYYCNTDYVPRRHDMDYWGQGTQVTLSS | low polyreactivity
12 | QVQLVESGAGLLQAGGSLRLSCAASGFIFVTYAMGWYRQAPGKERELVAAITNSGGTTYYADSVKGRFTISRDNAKNTVYLQMISLKPEDTAVYYCNKAYGAETAHREFVYWGQGTQVTVSS | low polyreactivity
13 | QGQLVESGGGLVQAGGSLRLSCAASGSTFTSSAMGWSRQGPGKERELVAAISRSGGRTYYADSVKGRFTISRDNAKTTVYLQMNSQKPEDTAVYYCAADRSRWGQGTQVTVSS | high polyreactivity
14 | QVQLVDSGGGLVQAGGSLRLSCAASGSSFYISAMGCYRQAPGKERELVAAITNAGSTKYADSVKGRFTISRDNAKNTVYLQMNSLKPEDTAVYYCAAVTFSYDGYDYWGQGTQVTVSS | low polyreactivity
15 | QVQLVESGGGLVQARGSLRLSCAASGSTFGRYAMGSYRQAPGIERELVAAISLGTTTNYADSVKGRFTISRDNAKNTVYLQMNSLKPEDTAVSYCAADQPSKRYYYWGQGTQVTVSS | low polyreactivity
16 | QVQLVESGGGLVQAGGSLRLSCAASGFTCTRYAMGWYRQAPGKERELVATITGGGRTNYADSVKGRFTISRDNAKNTVYLQMNSLKPEDTADYYCNAKYRVYWGSGKFDYWGQGSQVTVSS | high polyreactivity

Row | Sequence | polyreactivity (PSR sort gate)
17 | QVQLVESGGGLVQAGGSLRLSCAASGRIFYWYAMGWYRQAPGKERELVAAISSTGRTKYADSVKGRFTISRDNAKNTVDLQMNSLKPEDTAVYYCAKRRAAVNGRSDYYYWGQGTQVTVSS | high polyreactivity
18 | QDQHVESGGGLVQAGGSLRLICDASGGIFGTNDMGWYRQAPGKERELVAAITSDSGATYYADSVKGRFTISRDNAKNTVYLQMNSLKPEDTAVYYCAAEDGPWFYRYGYWGQGTQVTVSS | low polyreactivity
19 | QVQLVESGGGLVQAGGSLRLSCAASGLIFNVNVMGWYRQAPGKERELVAAIDYSGGSTYYADSVKGRFTISRDNAKNTVFLQMNSLKPEDTAVYYCSADDAAWPYSWWGFDYWGQGTQVTVSS | low polyreactivity
20 | QVQLVESGGGLVQAGGSLRLSCAASGRISESNDMGWSRQAPWKERELVAAISSSGGSTYYADSVKGRFTISRDNAKNTVYLQMNSLKPEDTAVYYCNAVYYRTVLKIGVYEYDYWGQGTQVTVSS | low polyreactivity
21 | QVQLVESGGGLVQAGGSLRLSCAASGSTFWANAMGWSRPAPGKERELVAAITSTGITYYADSVKGRFTISRDNAKNTVYLQMNSLIPEDTAVYYCAAEPPDEFWTDLLVDYFLGYEYWGPGTQVTVSS | low polyreactivity
22 | QVQLVESGGGLVQAGGSLRLTCAASGSTFSVYDMGWYRKAPGKERELVAAIDVTGGSTYYADSVKGRFTISRDNAKNTVSLQMNSLKPEDTAVYYCNAGKCYSLYGMYYWGQGTQVTVSS | low polyreactivity
23 | QVQLVESGGGLVQAGGSLRLSCAASGSTFKSYVMGWYRQAPGKERELVAAISSGDSTYYADSVKGRFTISRDNAKNTVYLQMNSLKPEDTAVYYCAADPGYTVEPWEDDDWGQGTQVTVSS | low polyreactivity
24 | QVQLVESGGGLVQAGGSLRLSCAASGIIFYIYAMGWYRQAPGKERELVATISNDGGSTYYADSVKGRFTISRDNAKNTVYLQMNSLKPEDTAFFYCNADFADDKNYLFESELEYDYWGQGTQVTVSS | low polyreactivity
25 | QVQLVESGGALVQAGGSLRLICAASGSIFGHNAMGWYRQAPGKERELVAAISRGTRTNYADSVKGRFTISRDNAKNTFYVQMNSLKQVDSAVYYCNLQPGRGPYVGRKYGYWGQGTQVTVSS | high polyreactivity
26 | QVQLVESGGGLVQAGGSLRLSCAASGLIFGDYAMGWYRPAPGKERELVAAITGSVTRTYYADSVKGRFTISRDNAKNTVYLQMNSLKPEDTAVYYCATRVHYIGFYDYDYWGQGTQVTVSS | low polyreactivity
27 | QVQLVESGGGLVQAGGSLRLSCAASGRTFGNYVMGWYRQAPGKERELVAAIRSGTNTYYADSVKGRFTISLDNAKNTVYLQMNSLKPEVTAVYYCNKYVRTTDYDYWGQGIQVTVSS | high polyreactivity
28 | QVQLVESGGGLVQAGGSLRLSCAASGFTFRRYTMGWYRQAPGKERELVAAISGRGGRTYYADSVKGRFTISRDNSKNTVYLQMNSLNPEDTAVYYCAADTQYWQSSKYDYWGQGTQVTVSS | high polyreactivity
29 | QVQLVESGGGLVQAGGSLRLSCAASGRIFYFYAMGWYRQAPGKERELVAAIDWSGGSTYYADSVKGRFTISRDNAKNTVYLQMNSLKPEDTAVYSCAARWRSKGVQYYYWGQGSQVTVSS | high polyreactivity
30 | QVQLVESGGGLVQAGGSLRLSCAASGRTFAAYAMGWYRQAPGKERELVAGITSSSVRTYYADSVKGRFTISRDNAKNTVYLQMNSLKPEDTAVYYCNARADGSSSRWRPYSKFYYWGQGTQVTVSS | low polyreactivity
31 | QVQLEESGGGLVQAGGSLRLSCAASGSTFAGNAMGWYRQAPGKERELVAAISGSGGITYYADSVKGRFTISRDNAKNTVYLQMNSLKAEDTAVYYCNAYYWFSRYGYWGQGTQVNVSS | high polyreactivity
